Consider 20 sequences from the DeepSol protein solubility set.

The series is described as follows: soluble on expression in E. coli; label from the status in PepcDB or PDB records.
Turning to “FGLETVSENELAHSEEELRIILSESYKSGEINQSEFKYVNKIFEFDDRLAKEIMIPRTEIVSLPHDIKISEMMDIIQIEKYTRYPVEEGDKDNIIGVINIKEVLTACISGEVSVDSTISQFVNPIIHVIESAPIQDLLVKMQKERVHMAILSDEYGGTAGLVTVEDIIEEIVGEIR”, the “soluble on expression in E. coli” value is reported as “soluble”.
For the sequence “MGHHHHHHSHMKALSPVRGCYEAVCCLSERSLAIARGRGKGPAAEEPLSLLDDMNHCYSRLRELVPGVPRGTQLSQVEILQRVIDYILDLQVVLAEPAPGPPDGPHLPIQTAELAPELVISNDKRSFCH”, the “soluble on expression in E. coli” value is “not soluble”.
Take “MSIRIDRQRCIGCGKCAEICPGNLIVIDEDKKAFVRDPRDCWGCAACVKECKFSAIRYFLGAEIGGNGTTMYVEKENDEIMYWYFEKPSGEKEMIVQNLKDNTTYLEHHHHHH”: the “soluble on expression in E. coli” value is listed as “not soluble”.
In the case of “MDDHAFAAPAPAAPTAPALPMAVLAELTHRCPLQCPYCSNPVELEAASRELSTEDWQRVIGELAALGVLQIHFSGGEPLVRRDLVALVAHADRAGLYTNLITSAVMFTRAKVAELAEAGLAHVQVSLQGASAPVAERIGGFRGGHAKKIEAAAWVRAEGMALTLNAVMHRQNLDELPRIVEMAVEMGAQRLEVAHVQYYGWALKNRAALMPTLAQLDEATRIVEEAQARLSGVLAIDYVIPDYYAVRPKTCMGGWGRQFFNISPSGKVLPCHAAETITGLRFDSVREAPLAEIWQRSEALNLYRGTGWMQEPCRSCIHAEEDFGGCRCQAFALAGDAAATDPACAKSPLHAQLFSLAGAEAEAGADRFLYRNFSGGTPEG”, the “soluble on expression in E. coli” value is recorded as “not soluble”.
For “MSLRSSFRVGVTEDRNKKCRRTMEDTHAYLYNFLGNPVPSAQNDDSDQSSHPSDASPKTGELTPIVETDNGYFAIFDGHAGTFAAQWCGKKLHLILEDVMRKNINAPVPELLDQTFTSVDQQLEKLPVKNSGCTAVVALLRWEDRIPTPSSVTGSSAIGPAAVAATKAGADSKADDTPTQEAAATPVPAIPPKLREKAIRQRVLYTANVGDARVILCRNGKALRLSYDHKGSDENEGRRIANAGGLIMNNRVNGVLAVTRALGDAYIKDLVTGHPYTTETVIQPDLDEFIILASDGLWDVCSDQEAVDLIRNVSDAQEASKILVDHALARFSTDNLSCMVIRLYADREGHHHHHH”, the “soluble on expression in E. coli” value is recorded as “soluble”.
As for “GMNLTELMERIPHLREILNIVREAFKDYDDPAHDISHTFRVMENASEIASREKCDLQKAIIAALLHDIKRPHEALTGVDHAESGAEYASGLLPTMGFDISFVAEVSKAIRSHRYSGGLTPTSLTGKILQDADRLDAIGAVAIARVFSYSGKTGTPLHSLQFSPRSSYSGNSRSSINHFHEKILKIRPETFWTETARKMAEDRYSFVVEFVQRFLAEWGQI”, the entry is “soluble”.
For the sequence “MQYHRIPHSSLEVSTLGLGTMTFGEQNSEADAHAQLDYAVAQGINLIDVAEMYPVPPRPETQGLTETYVGNWLAKHGSREKLIIASKVSGPSRNNDKGIRPDQALDRKNIREALHDSLKRLQTDYLDLYQVHWPQRPTNCFGKLGYSWTDSAPAVSLLDTLDALAEYQRAGKIRYIGVSNETAFGVMRYLHLADKHDLPRIVTIQNPYSLLNRSFEVGLAEVSQYEGVELLAYSCLGFGTLTGKYLNGAKPAGARNTLFSRFTRYSGEQTQKAVAAYVDIARRHGLDPAQMALAFVRRQPFVASTLLGATTMDQLKTNIESLHLELSEDVLAEIEAVHQVYTYPAP”, the “soluble on expression in E. coli” value is listed as “soluble”.
For “MAHHHHHHMQSSALRPSSLLRAYHYVHPKTGRPIRQYRKYGDPRFINNEVALIKGLFALITTDFGMVTQSQLENARLAILRRMPRGSFALTMHTDYEEFPVVQKSPESRMGAGKSNIHHFAYKFTTGVPLFEITALSSRRLNQAEAEGIFLAGRSFIPLQTAVVPRGRVDEYHVFK”, the “soluble on expression in E. coli” value is reported as “soluble”.
As to “MGHHHHHHSHMKQKLLVTLLGLSALGASPVFAANTNVDLAEDAYIYGYSIDEAYKFFYHTAVENNYPLNRFQNIRALADDSYTAHPTINNDTLHLMGWLDVAAEPVIVSVPDMDEGRYWILHTMDMGHYTNAAFSSRTRGTKGGQFMFAAQDWQGEVPASVDEVVRVDSNLVKLMGRIMAVNDEDAKVALNYMDQWNIRTLSEYLGKNGPKPVQRTYPDPKKSTWLERVNFVLCDGSMGNADKQWLDKYQSIGVEPCKTDFTPEQLKLAKVGEKKGMEHLVELAPKMTDARTLLGTRDTLGDAPRDIFAEGTYLGQWGLPPIEASYRKSDFDSIGQKLDGSKHDYVMRFKAPNVSEFWSVTIYGNDNRLMAKNDLNRHSRGDRTMKADKDGYYTIYMSANEKGRADDPNFLPVPEKPFYAIMRFYGADDAIQSGEYQMPEIKVVK”, the “soluble on expression in E. coli” value is “soluble”.
“AIALPADGIVCFPGQTWEKVLSKVKKAVVFMDDRCSESLHWNGGAALLFEAGARNIKQFSSFEAGAQNEPKAVFVVSTVLKGRTADIIKDIISLSHFQYCVVFTTVPHSIHLLANNVNADLEGNPVFEQFEEKLCEWMGDMNYTAEVMHAPVVFAPLTEHLHLLPAFSNLFPLLDVDLESINEKRPEKKRFGSLMDMDVHSLPPGLQIQIKTLALTLNGLFEFISTREESFSVGPMSRLIATELANLPQAKNRRKTAPNKASVVFVDRTLDLTGAVGHHGDNLAEKILSVLPQLPGHVTDVQVDMLELTHLKPTTDTKGILAPGCLAQNQSATAKLLWETMLVAKQKEAVIEVRRQLVEAASKENLPIKMSLGRVTAEQLCSYVQLFRDSWGALESHSGVLQLGLAAAQALRHPALQRWDACLAFERLLLQALGDSDLAGVLKQLLPLIKSSESGTGSDLSMDDLLVLLVYVYSVAKEACSGGSEEEKQVEKVEQELIGALTLRLTRETTLSPLVQEVTGVSCPEELTMECAHSVLESMFGTLRGVARARDHLKNFSSVFTPGDGAHQDQHRYILILMIQDQHQ”: the “soluble on expression in E. coli” value is “soluble”.
Regarding “TKDFSWTTAFNLSHNKNKILKLADLPWFVDGRYVRKEGYPFNTIYLREYAGVDPETGSALYYDNQQDENGNYTKNKVTDPGQASPIPLKDITPTISGGFMNTFNYKFIDLSFNLSYSFGGYSYDNASYILQDDGYSVISNKSTEQRRRWQKPGDITDVPRFVYGNKKGGNYNSSRAIHSTDHIRLKSLILGLNAPKAWLQKLGIGNARIYFSGTNLLTWAAYDQYDPEMSGVVGFYTPPLKTYAFGLELKF”, the “soluble on expression in E. coli” value is “not soluble”.
Then “SNAMSKKAELAELVKELAVVHGKVTLSSGKEADYYVDLRRATLHARASRLIGELLRELTADWDYVAVGGLTLGADPVATSVMHADGREIHAFVVRKEAKKHGMQRRIEGPDVVGKKVLVVEDTTTTGNSPLTAVKALREAGAEVVGVATVVDRATGAADVIAAEGLEYRYILGLEDLGLA”, with “soluble”; and “MHHHHHHSSGVDLGTENLYFQSMPRARPGGNRVTVVLGAQWGDEGKGKVVDLLAQDADIVCRCQGGNNAGHTVVVDSVEYDFHLLPSGIINPNVTAFIGNGVVIHLPGLFEEAEKNVQKGKGLEGWEKRLIISDRAHIVFDFHQAADGIQEQQRQEQAGKNLGTTKKGIGPVYSSKAARSGLRMCDLVSDFDGFSERFKVLANQYKSIYPTLEIDIEGELQKLKGYMEKIKPMVRDGVYFLYEALHGPPKKILVEGANAALLDIDFGTYPFVTSSNCTVGGVCTGLGMPPQNVGEVYGVVKAYTTRVGIGAFPTEQDNEIGELLQTRGREFGVTTGRKRRCGWLDLVLLKYAHMINGFTALALTKLDILDMFTEIKVGVAYKLDGEIIPHIPANQEVLNKVEVQYKTLPGWNTDISNARAFKELPVNAQNYVRFIEDELQIPVKWIGVGKSRESMIQLF”, with “soluble”.
Consider “MDQALYSLETRFEQFQRYEQIFGFLFDLKKLQSASDDSLMASCTNLKDALTHGTHSDILASDLFYELKILREALPKEVRRPIEVLDFLQKVEGCYPNSWIAYQVLLTIPVSVASAERSFSKLKLIKSYLRSSMSQERLSDLAILSIERALVREVDFERLANDFVGKKGRRITL”, for which the “soluble on expression in E. coli” value is given as “soluble”.
“MRKIGLLFITIFCLLACKNNSSRISLEGEIKGLTNDTLYLYGTDALYDRIDTIYAEKGKFSYNLNIDSTVIDTLTTAVLLINGHVEYPVFLDKGNQITIKGNIDDLSYLDINGNEPNTSLSLFMKEQRGLGSASDKMMQEKAETFIRQHNSSLASVYLLDKYFVQTPQPDYIKIKEITEAMTGALLDRPYIENISDYIDQLEKVTVGKSAPYFSLPNEKGEKLSRSAERFRNRYLLLNFWASWCDPQPEANAELKRLNKEYKKNKNFAMLGISLDIDREAWETAIKKDTLSWDQVCDFTGLSSETAKQYAILTLPTNILLSPTGKILARDIQGEALTGKLKELLKTEEKKTGKSIR”: the “soluble on expression in E. coli” value is on record as “not soluble”.
With “AHMAMIKMSPEEIRAKSQSYGQGSDQIRQILSDLTRAQGEIAANWEGQAFSRFEEQFQQLSPKVEKFAQLLEEIKQQLNSTADAVQEQDQQLSNNFGLQ”, the “soluble on expression in E. coli” value was “soluble”.
With “TKDFNWNTDFIFSNAKNEVTDLKQNANVMELISGNGFAKQGYPVRGLFSIPFVGLDKDGIPVIINEKGEATSTDINFQERQNTGFLKYEGPTDPTITGSLGNMFSYKGFRLNLFITYSFGNVIRLNPVFKAYYSDLTAMTREFKNRWTLPGDEAKTNVPAILSKRMYDSNEDLKYAYNAYNYSTERIAKGDFIRLKEISLAYDFPKAWINPLKLTDLSLKVQATNLFLIYADDKLNGQDPEFFNAGGVASPVPRQFTITLRLGL”, the “soluble on expression in E. coli” value was “not soluble”.
As for “MAHHHHHHMFSRTGFRCAPVVEDVVAAFKVLGLAYNPRAPASSRPGVDDVRRQYLEMARLHHPDLSSGDDNRMKVINTAYELIQSSGILHGAYDAPAGAREGVAGQQGGEAGTATRFARKAGARRRRMPDDFASGDDSSWSMKTSLDWQAIMNSTETLSDEEMKNPANHPFSHSKFFTFEDDLTIYRMICGGATVRQVARSLGKPATFIERRLQNAQFKLRVQYVLRQDKRKSTAASSNGAASSGSMQQTTSTTITEPATRRALRRSPYEDAHVSSTVRKREWEPSYPEWRAPRYRDQMTLEEQGRLDGLLRETPRAAHAAGKSVSSLHSARRSAASKMGRSYENYKRLRPSF”, the entry is “not soluble”; as for “MESGHRFDAQTLHSFIQAVFRQMGSEEQEAKLVADHLIAANLAGHDSHGIGMIPSYVRSWSQGHLQINHHAKTVKEAGAAVTLDGDRAFGQVAAHEAMALGIEKAHQHGIAAVALHNSHHIGRIGYWAEQCAAAGFVSIHFVSVVGIPMVAPFHGRDSRFGTNPFCVVFPRKDNFPLLLDYATSAIAFGKTRVAWHKGVPVPPGCLIDVNGVPTTNPAVMQESPLGSLLTFAEHKGYALAAMCEILGGALSGGKTTHQETLQTSPDAILNCMTTIIINPELFGAPDCNAQTEAFAEWVKASPHDDDKPILLPGEWEVNTRRERQKQGIPLDAGSWQAICDAARQIGMPEETLQAFCQQLAS”, “soluble”.
With “MSISMDRWQGIQHVVVVGLGITGLSVVNYLRKYHPSVTVQVIDTREAPPGQEQLSSDVALHRSGWNLEWLLNADLVVTNPGIALATPEIQQVLAAGIPVVGDIELFAWHVDTPVIAITGSNGKSTVTDLSGVLANAAGVKAAVGGNIGVPALDLISPDVELYVLELSSFQLETTSSLKLKAAAFLNLSEDHMDRYQGMEDYRQAKLRIFDHAETAVVNADDTQTFPDHAAHLQVVTFGVEQAAQFSLAQHQGREYLFARDEAVMACAELSLVGRHNVANVLTVLALLDSAGVNFRLALDALKSYTGLTHRCQVVADNHGIKWVNDSKATNVASTLAALSGLKIEGQLYLLVGGVGKGADFTPLAPVLATLPVQLCCFGVDGHQFMPLHPSARFYDSMESIIRSIRPQLKSGDMVLLSPACASFDQFKNFMARGDIFAQLARQYA”, the “soluble on expression in E. coli” value is “not soluble”.
